Tests used:
Jun = Jun (UniProt P05627); assay: biotinylated row protein on streptavidin beads, 35S column protein counted
SV40 large T (SV40) = SV40 large T (SV40) (UniProt P03070); assay: as above
Fos = Fos (UniProt P01101); assay: as above
[1] = molecular target: luciferase [luciferase: P08659]; assay: as above
p53 = p53 (UniProt P02340); assay: as above
streptoavidin beads = streptoavidin beads (UniProt P22629); assay: five 35S-labelled proteins alone on streptavidin beads, no biotinylated protein
streptoavidin beads, sequence (P22629 37-163): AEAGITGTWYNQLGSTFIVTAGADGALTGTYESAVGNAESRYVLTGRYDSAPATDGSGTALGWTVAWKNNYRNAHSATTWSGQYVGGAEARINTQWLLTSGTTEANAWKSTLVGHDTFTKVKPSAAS

p53, sequence (P02340 whole entry): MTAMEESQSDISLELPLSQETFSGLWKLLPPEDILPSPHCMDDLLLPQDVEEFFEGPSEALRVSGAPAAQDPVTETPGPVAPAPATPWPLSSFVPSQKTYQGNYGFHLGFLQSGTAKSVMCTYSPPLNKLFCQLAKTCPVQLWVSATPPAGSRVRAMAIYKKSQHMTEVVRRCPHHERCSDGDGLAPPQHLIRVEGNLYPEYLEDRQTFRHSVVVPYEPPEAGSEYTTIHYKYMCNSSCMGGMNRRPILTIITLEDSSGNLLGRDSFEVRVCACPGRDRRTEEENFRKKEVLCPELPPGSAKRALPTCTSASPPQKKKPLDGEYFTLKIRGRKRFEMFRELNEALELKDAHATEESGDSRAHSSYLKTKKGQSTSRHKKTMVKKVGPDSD
luciferase [luciferase: P08659], sequence (P08659 whole entry): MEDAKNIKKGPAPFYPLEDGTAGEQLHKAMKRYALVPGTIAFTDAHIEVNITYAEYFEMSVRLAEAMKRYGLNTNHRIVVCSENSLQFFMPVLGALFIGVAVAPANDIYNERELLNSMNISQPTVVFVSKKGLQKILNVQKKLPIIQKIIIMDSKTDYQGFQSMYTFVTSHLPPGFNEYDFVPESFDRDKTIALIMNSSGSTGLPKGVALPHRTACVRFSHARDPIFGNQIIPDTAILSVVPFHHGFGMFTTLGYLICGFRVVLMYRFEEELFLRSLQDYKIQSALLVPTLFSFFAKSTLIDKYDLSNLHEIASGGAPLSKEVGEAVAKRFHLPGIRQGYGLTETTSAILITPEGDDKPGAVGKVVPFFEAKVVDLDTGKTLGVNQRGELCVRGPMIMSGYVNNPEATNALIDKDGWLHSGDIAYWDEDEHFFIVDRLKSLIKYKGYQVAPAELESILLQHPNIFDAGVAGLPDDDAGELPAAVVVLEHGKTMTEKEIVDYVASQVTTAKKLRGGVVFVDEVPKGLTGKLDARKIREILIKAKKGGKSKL
Fos, sequence (P01101 whole entry): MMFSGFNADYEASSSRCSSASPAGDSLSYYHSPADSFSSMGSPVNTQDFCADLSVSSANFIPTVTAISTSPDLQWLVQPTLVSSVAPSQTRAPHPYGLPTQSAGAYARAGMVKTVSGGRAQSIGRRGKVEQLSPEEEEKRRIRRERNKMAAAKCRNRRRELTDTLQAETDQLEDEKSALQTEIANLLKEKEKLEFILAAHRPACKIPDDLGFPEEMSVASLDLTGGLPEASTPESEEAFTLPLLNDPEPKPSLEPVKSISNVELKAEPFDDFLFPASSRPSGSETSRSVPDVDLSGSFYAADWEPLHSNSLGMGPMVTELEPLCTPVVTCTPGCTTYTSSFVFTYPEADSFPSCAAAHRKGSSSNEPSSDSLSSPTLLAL
Jun, sequence (P05627 whole entry): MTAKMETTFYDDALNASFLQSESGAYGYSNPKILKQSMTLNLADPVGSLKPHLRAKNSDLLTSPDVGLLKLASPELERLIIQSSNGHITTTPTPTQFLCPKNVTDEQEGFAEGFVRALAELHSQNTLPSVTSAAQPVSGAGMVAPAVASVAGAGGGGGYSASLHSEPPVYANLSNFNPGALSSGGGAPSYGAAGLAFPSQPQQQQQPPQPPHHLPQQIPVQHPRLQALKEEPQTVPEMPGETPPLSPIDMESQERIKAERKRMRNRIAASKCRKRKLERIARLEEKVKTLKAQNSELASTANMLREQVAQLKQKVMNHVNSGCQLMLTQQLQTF

With “SV40 large T (from UniProt P03070 1-708)” the RI (c.p.m.) (Jun) was 197 c.p.m, the RI (c.p.m.) (SV40 large T (SV40)) was 551 c.p.m and the RI (c.p.m.) (Fos) was 197 c.p.m.

Work on “SV40 large T (from UniProt P03070 1-708) (other; other documents disagree on this pair)” yielded an RI (c.p.m.) [1] of 208 c.p.m and an RI (c.p.m.) (p53) of 1400 c.p.m.

“mixture of the five proteins of Reference Examples 1 and 2 (Fos, Jun, luciferase, SV40 large T, p53)” gave an RI (cpm), background without biotinylated proteins (streptoavidin beads) of 447 cpm.

p53 (from UniProt P02340 1-390) was tested, and the RI (c.p.m.) (p53) was 200 c.p.m.
